Experiment [1] addresses T1, SARS-CoV-2 spike S2 subunit (SARS-CoV-2, UniProt P0DTC2).
T1 construct: also called S2 domain
The experiment can be described thus: far-Western, overlay or dot blot. Particulars: both partners purified.

Experiment [2] concerns the target T2, SARS-CoV spike peptide #154, PELDSFKEELDKYFKNH (SARS-CoV residues 1125–1141); corresponding to SARS-CoV-2 … (SARS-CoV, residues 1125-1141).
T2 construct: also called 17-residue peptide
T2 chain: PELDSFKEELDKYFKNH
The experiment can be described thus: far-Western, overlay or dot blot. Particulars: both partners purified.

The target of experiment [3] is T3, SARS-CoV-2 full-length spike, expressed on the cell surface (SARS-CoV-2 WA-1 (GenBank QHD43416.1), UniProt P0DTC2).
T3 construct: also called SARS-CoV-2 spike; WA-1 spike; source: Expi-293 cells, transiently transfected, on the cell surface
Briefly: flow cytometry on cells. Particulars: one partner purified. For orientation: A flow cytometer gives signals particle by particle.

Experiment [4] has as its target T4, hCoV-OC43 full-length spike, expressed on the cell surface (hCoV-OC43 (AAT84354.1), UniProt P36334).
T4 construct: also called hCoV-OC43 spike; source: Expi-293 cells, transiently transfected, on the cell surface
The experiment can be described thus: flow cytometry on cells. Particulars: one partner purified.

For experiment [5], the target named is T5, MERS-CoV full-length spike, expressed on the cell surface (MERS-CoV EMC/2012 (GenBank AFS88936), UniProt K0BRG7).
T5 construct: also called MERS-CoV spike; MERS-CoV EMC
Briefly: flow cytometry on cells. Particulars: one partner purified.

In experiment [6] the target is T6, hCoV-HKU1 full-length spike, expressed on the cell surface (hCoV-HKU1 isolate N1 (AAT98580.1), UniProt Q5MQD0).
T6 construct: also called hCoV-HKU1 spike; source: Expi-293 cells, transiently transfected, on the cell surface
The experiment can be described thus: flow cytometry on cells. Particulars: one partner purified.

Experiment [7] addresses hCoV-OC43 prefusion-stabilized spike (S2P) (hCoV-OC43 (AAT84354.1), UniProt P36334, stabilised). The experiment can be described thus: ELISA. Particulars: both partners purified. (In general: In an ELISA, binding on a coated surface is turned into a signal by an enzyme label.)
Experiment [8] has as its target hCoV-HKU1 prefusion-stabilized spike (S2P) (hCoV-HKU1 isolate N1 (AAT98580.1), UniProt Q5MQD0, stabilised). Briefly: ELISA. Particulars: both partners purified.
Experiment [9] concerns the target SARS-CoV-2 S-dTM (soluble spike protein residues 1–1206 of wildtype WA-1 strain) (SARS-CoV-2 WA-1, UniProt P0DTC2). Briefly: ELISA. Particulars: both partners purified.
In experiment [10] the target is T7, SARS-CoV-2 S1-short (spike residues 1–670) (SARS-CoV-2, UniProt P0DTC2).
T7 construct: also called S1-short1
Briefly: ELISA. Particulars: both partners purified.

Experiment [11] has as its target SARS-CoV-2 spike N-terminal domain (NTD) (SARS-CoV-2, WA-1 / Wuhan-Hu-1, UniProt P0DTC2). The experiment can be described thus: ELISA. Particulars: both partners purified.
Experiment [12] deals with SARS-CoV-2 spike receptor-binding domain (RBD) (SARS-CoV-2, UniProt P0DTC2). Briefly: ELISA. Particulars: both partners purified.
Experiment [13] has as its target SARS-CoV-2 S1R (spike residues 1–537) (SARS-CoV-2, UniProt P0DTC2). Briefly: ELISA. Particulars: both partners purified.
Experiment [14] has as its target T1, SARS-CoV-2 spike S2 subunit. The experiment can be described thus: negative-stain EM. Particulars: both partners purified.

B1: antibody WS6 (IgG) (antibody, V domains shown)
VH: EVQFQQSGTVLARPGASVKMSCKASGYTFTNYWIHWVKQRPGQGLEYIGGTYPGNGDTTYNQKFKGKAKVTAVTPTSTAYMDLSSLTNEDSAVYYCTRTGSYFDYWGQGTTLTVSS
VL: QIVLTQSPAIMSASPGEKVTISCSATSSVSYIYWYQQRPGSSPKPWIYRTSNLASGVPVRFSGSGSGTSYSLTISNMEAEDAATYYCQQYQSYPPTFGAGTKLELK
notes: also called mAb WS6
For the molecule B1, the binding result in [1], in experiment [2], in experiment [3], in experiment [4], in experiment [5] and in [6] was “binds” each time. Besides, the binding result in experiment [7] is on record as “binds”; in [8] it was “binds”; in experiment [9], “binds”; in experiment [10], “no binding”; in experiment [11], “no binding”; in experiment [12], “no binding”. Moreover, the binding result in experiment [13] is given as “no binding”.

B2: antigen-binding fragment (Fab) of WS6 (Fab, V domains shown)
VH: EVQFQQSGTVLARPGASVKMSCKASGYTFTNYWIHWVKQRPGQGLEYIGGTYPGNGDTTYNQKFKGKAKVTAVTPTSTAYMDLSSLTNEDSAVYYCTRTGSYFDYWGQGTTLTVSS
VL: QIVLTQSPAIMSASPGEKVTISCSATSSVSYIYWYQQRPGSSPKPWIYRTSNLASGVPVRFSGSGSGTSYSLTISNMEAEDAATYYCQQYQSYPPTFGAGTKLELK
notes: also called Fab WS6; WS6 Fab; source: generated from the mAb with the Pierce Fab kit
As to B2, in experiment [14], the binding result is “binds”.

For the origin of these results see doi:10.1101/2022.01.25.477770 (bioRxiv, 2022).
